T1: APBA2_2, Q99767
T1 sequence (Q99767 654-744, limits assumed, looked up): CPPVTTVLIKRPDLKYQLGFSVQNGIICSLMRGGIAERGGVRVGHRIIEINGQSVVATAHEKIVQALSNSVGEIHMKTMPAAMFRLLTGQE

T2: DFNB31_2, Q9P202
T2 sequence (Q9P202 274-371, limits assumed, looked up): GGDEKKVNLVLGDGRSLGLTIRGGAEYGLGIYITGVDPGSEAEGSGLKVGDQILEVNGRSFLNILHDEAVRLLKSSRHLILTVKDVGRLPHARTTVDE

T3: GRIP1_7, Q9Y3R0
T3 sequence (Q9Y3R0 999-1096, limits assumed, looked up): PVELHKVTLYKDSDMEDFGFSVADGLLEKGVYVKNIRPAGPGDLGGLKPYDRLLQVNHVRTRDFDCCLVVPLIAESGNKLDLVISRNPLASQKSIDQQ

T4: HTRA4, P83105
T4 sequence (P83105 378-476, limits assumed, looked up): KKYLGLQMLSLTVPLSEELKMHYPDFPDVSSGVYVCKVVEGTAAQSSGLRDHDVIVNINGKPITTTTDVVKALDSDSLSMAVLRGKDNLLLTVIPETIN

T5: LIN7A, O14910
T5 sequence (O14910 103-200, limits assumed, looked up): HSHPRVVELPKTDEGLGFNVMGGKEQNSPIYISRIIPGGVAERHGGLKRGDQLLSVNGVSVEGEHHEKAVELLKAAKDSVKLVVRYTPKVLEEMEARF

T6: LNX2_2, Q8N448
T6 sequence (Q8N448 334-432, limits assumed, looked up): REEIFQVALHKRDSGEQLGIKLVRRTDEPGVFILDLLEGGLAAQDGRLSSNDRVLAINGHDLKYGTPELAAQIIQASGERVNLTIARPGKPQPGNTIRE

T7: MPDZ_10, O75970
T7 sequence (O75970 1624-1722, limits assumed, looked up): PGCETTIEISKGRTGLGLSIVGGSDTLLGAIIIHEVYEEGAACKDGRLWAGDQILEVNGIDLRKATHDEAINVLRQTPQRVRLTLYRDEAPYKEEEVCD

T8: MPP2, Q14168
T8 sequence (Q14168 180-250, limits assumed, looked up): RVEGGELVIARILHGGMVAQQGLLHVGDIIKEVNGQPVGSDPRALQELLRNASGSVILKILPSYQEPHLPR

T9: NHERF3_4, Q5T2W1
T9 sequence (Q5T2W1 373-468, limits assumed, looked up): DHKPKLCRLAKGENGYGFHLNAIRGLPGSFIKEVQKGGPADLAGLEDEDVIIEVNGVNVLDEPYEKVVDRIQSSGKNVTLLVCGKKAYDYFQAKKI

T10: PCLO, Q9Y6V0
T10 sequence (Q9Y6V0 4491-4600, limits assumed, looked up): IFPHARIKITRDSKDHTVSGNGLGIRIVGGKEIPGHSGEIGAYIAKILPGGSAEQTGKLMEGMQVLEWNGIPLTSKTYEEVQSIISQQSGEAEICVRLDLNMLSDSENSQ

T11: RADIL, Q96JH8
T11 sequence (Q96JH8 971-1071, limits assumed, looked up): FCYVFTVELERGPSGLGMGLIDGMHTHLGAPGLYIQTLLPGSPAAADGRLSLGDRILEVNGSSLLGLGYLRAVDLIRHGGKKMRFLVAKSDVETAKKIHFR

T12: TX1BP3, O14907
T12 sequence (O14907 10-122, limits assumed, looked up): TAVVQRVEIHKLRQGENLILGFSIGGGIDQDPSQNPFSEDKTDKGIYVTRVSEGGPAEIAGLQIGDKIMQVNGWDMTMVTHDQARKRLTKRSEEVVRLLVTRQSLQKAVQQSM

B1: GAS2L2, Q8NHY3 (peptide)
chain: PLPPEEESWV
B2: FCHSD2, O94868 (peptide)
chain: KIEDVEITLV
B3: DUSP5, Q16690 (peptide)
chain: RSPVATATSC

Biological target: T1, APBA2_2, Q99767
Test: holdup assay
Parameters: key: below the threshold = too weak to quantify, mostly under pKd 3.1 to 4
Settings: plain residues with an end cap or a label only (N-terminal biotin on a linker: ado-ado)

| pKd | Binder |
| --- | --- |
| below the threshold | B1 |
| 3.51 | B2 |
| below the threshold | B3 |

Biological target: ARHGEF12, Q9NZN5-2
Test: holdup assay
Parameters: key: below the threshold = too weak to quantify, mostly under pKd 3.1 to 4
Settings: plain residues with an end cap or a label only (N-terminal biotin on a linker: ado-ado)

ARHGEF12, Q9NZN5-2, sequence (Q9NZN5 other isoform, or with tags, fused parts or gaps): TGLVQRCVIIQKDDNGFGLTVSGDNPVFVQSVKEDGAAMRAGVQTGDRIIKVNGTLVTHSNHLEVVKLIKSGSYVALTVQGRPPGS

| pKd | Binder |
| --- | --- |
| below the threshold | B1 |
| 3.85 | B2 |
| 4.26 | B3 |

Biological target: T2, DFNB31_2, Q9P202
Test: holdup assay
Parameters: key: below the threshold = too weak to quantify, mostly under pKd 3.1 to 4
Settings: plain residues with an end cap or a label only (N-terminal biotin on a linker: ado-ado)

| pKd | Binder |
| --- | --- |
| below the threshold | B1 |
| below the threshold | B2 |
| below the threshold | B3 |

Biological target: FRMPD2_2, Q68DX3
Test: holdup assay
Parameters: key: below the threshold = too weak to quantify, mostly under pKd 3.1 to 4
Settings: plain residues with an end cap or a label only (N-terminal biotin on a linker: ado-ado)

FRMPD2_2, Q68DX3, sequence (Q68DX3 944-1038): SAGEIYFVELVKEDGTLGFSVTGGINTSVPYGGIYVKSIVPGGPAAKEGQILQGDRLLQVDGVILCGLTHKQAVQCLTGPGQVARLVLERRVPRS

| pKd | Binder |
| --- | --- |
| 6.16 | B1 |
| 4.76 | B2 |
| below the threshold | B3 |

Biological target: FRMPD2_3, Q68DX3
Test: holdup assay
Parameters: key: below the threshold = too weak to quantify, mostly under pKd 3.1 to 4
Settings: plain residues with an end cap or a label only (N-terminal biotin on a linker: ado-ado)

FRMPD2_3, Q68DX3, sequence (Q68DX3 1073-1166): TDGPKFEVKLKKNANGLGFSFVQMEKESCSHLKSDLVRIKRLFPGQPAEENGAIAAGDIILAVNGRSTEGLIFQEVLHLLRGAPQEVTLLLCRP

| pKd | Binder |
| --- | --- |
| 4.04 | B1 |
| below the threshold | B2 |
| below the threshold | B3 |

Biological target: T3, GRIP1_7, Q9Y3R0
Test: holdup assay
Parameters: key: below the threshold = too weak to quantify, mostly under pKd 3.1 to 4
Settings: plain residues with an end cap or a label only (N-terminal biotin on a linker: ado-ado)

| pKd | Binder |
| --- | --- |
| 4.46 | B1 |
| below the threshold | B2 |
| below the threshold | B3 |

Biological target: T4, HTRA4, P83105
Test: holdup assay
Parameters: key: below the threshold = too weak to quantify, mostly under pKd 3.1 to 4
Settings: plain residues with an end cap or a label only (N-terminal biotin on a linker: ado-ado)

| pKd | Binder |
| --- | --- |
| 3.59 | B1 |
| 4.54 | B2 |
| below the threshold | B3 |

Biological target: IL16_3, Q14005
Test: holdup assay
Parameters: key: below the threshold = too weak to quantify, mostly under pKd 3.1 to 4
Settings: plain residues with an end cap or a label only (N-terminal biotin on a linker: ado-ado)

IL16_3, Q14005, sequence (Q14005 1107-1207): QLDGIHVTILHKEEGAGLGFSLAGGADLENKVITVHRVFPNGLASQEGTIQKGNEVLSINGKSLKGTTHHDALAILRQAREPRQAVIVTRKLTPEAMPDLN

| pKd | Binder |
| --- | --- |
| below the threshold | B1 |
| below the threshold | B2 |
| below the threshold | B3 |

Biological target: Inadl_10, Q8NI35
Test: holdup assay
Parameters: key: below the threshold = too weak to quantify, mostly under pKd 3.1 to 4
Settings: plain residues with an end cap or a label only (N-terminal biotin on a linker: ado-ado)

Inadl_10, Q8NI35, sequence (Q8NI35 1673-1763): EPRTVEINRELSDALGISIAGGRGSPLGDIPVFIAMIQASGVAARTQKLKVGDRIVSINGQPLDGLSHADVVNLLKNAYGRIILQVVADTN

| pKd | Binder |
| --- | --- |
| below the threshold | B1 |
| below the threshold | B2 |
| below the threshold | B3 |

Biological target: Inadl_5, Q8NI35
Test: holdup assay
Parameters: key: below the threshold = too weak to quantify, mostly under pKd 3.1 to 4
Settings: plain residues with an end cap or a label only (N-terminal biotin on a linker: ado-ado)

Inadl_5, Q8NI35, sequence (Q8NI35 673-780): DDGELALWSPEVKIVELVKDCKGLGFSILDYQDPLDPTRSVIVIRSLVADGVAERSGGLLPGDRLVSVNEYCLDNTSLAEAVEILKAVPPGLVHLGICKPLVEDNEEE

| pKd | Binder |
| --- | --- |
| 4.29 | B1 |
| below the threshold | B2 |
| below the threshold | B3 |

Biological target: Inadl_8, Q8NI35
Test: holdup assay
Parameters: key: below the threshold = too weak to quantify, mostly under pKd 3.1 to 4
Settings: plain residues with an end cap or a label only (N-terminal biotin on a linker: ado-ado)

Inadl_8, Q8NI35, sequence (Q8NI35 1425-1530): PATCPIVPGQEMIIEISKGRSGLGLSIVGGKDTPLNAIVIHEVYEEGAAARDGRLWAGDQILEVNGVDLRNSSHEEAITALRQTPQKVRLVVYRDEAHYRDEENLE

| pKd | Binder |
| --- | --- |
| 3.8 | B1 |
| 3.99 | B2 |
| below the threshold | B3 |

Biological target: Inadl_9, Q8NI35
Test: holdup assay
Parameters: key: below the threshold = too weak to quantify, mostly under pKd 3.1 to 4
Settings: plain residues with an end cap or a label only (N-terminal biotin on a linker: ado-ado)

Inadl_9, Q8NI35, sequence (Q8NI35 1530-1615): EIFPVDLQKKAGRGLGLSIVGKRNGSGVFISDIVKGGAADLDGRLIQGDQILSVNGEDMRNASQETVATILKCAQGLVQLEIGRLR

| pKd | Binder |
| --- | --- |
| 4.34 | B1 |
| 3.68 | B2 |
| below the threshold | B3 |

Biological target: T5, LIN7A, O14910
Test: holdup assay
Parameters: key: below the threshold = too weak to quantify, mostly under pKd 3.1 to 4
Settings: plain residues with an end cap or a label only (N-terminal biotin on a linker: ado-ado)

| pKd | Binder |
| --- | --- |
| below the threshold | B1 |
| below the threshold | B2 |
| below the threshold | B3 |

Biological target: LNX1_3, Q8TBB1
Test: holdup assay
Parameters: key: below the threshold = too weak to quantify, mostly under pKd 3.1 to 4
Settings: plain residues with an end cap or a label only (N-terminal biotin on a linker: ado-ado)

LNX1_3, Q8TBB1, sequence (Q8TBB1 500-596): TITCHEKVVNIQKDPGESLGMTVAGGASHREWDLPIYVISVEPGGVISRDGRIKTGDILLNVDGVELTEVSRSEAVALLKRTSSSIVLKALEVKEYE

| pKd | Binder |
| --- | --- |
| below the threshold | B1 |
| below the threshold | B2 |
| below the threshold | B3 |

Biological target: T6, LNX2_2, Q8N448
Test: holdup assay
Parameters: key: below the threshold = too weak to quantify, mostly under pKd 3.1 to 4
Settings: plain residues with an end cap or a label only (N-terminal biotin on a linker: ado-ado)

| pKd | Binder |
| --- | --- |
| 5.07 | B1 |
| 5.6 | B2 |
| 3.75 | B3 |

Biological target: MAGI1_1, Q96QZ7
Test: holdup assay
Parameters: key: below the threshold = too weak to quantify, mostly under pKd 3.1 to 4
Settings: plain residues with an end cap or a label only (N-terminal biotin on a linker: ado-ado)

MAGI1_1, Q96QZ7, sequence (Q96QZ7 1-106): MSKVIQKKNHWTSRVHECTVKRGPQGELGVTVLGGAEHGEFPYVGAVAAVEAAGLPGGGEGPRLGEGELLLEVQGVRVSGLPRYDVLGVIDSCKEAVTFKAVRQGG

| pKd | Binder |
| --- | --- |
| below the threshold | B1 |
| below the threshold | B2 |
| below the threshold | B3 |

Biological target: MAGI1_2, Q96QZ7
Test: holdup assay
Parameters: key: below the threshold = too weak to quantify, mostly under pKd 3.1 to 4
Settings: plain residues with an end cap or a label only (N-terminal biotin on a linker: ado-ado)

MAGI1_2, Q96QZ7, sequence (Q96QZ7 456-580): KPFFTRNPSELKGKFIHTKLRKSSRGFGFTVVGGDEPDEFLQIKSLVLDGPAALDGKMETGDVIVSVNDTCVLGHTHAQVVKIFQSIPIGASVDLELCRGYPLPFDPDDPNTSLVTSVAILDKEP

| pKd | Binder |
| --- | --- |
| below the threshold | B1 |
| below the threshold | B2 |
| below the threshold | B3 |

Biological target: MAGI3_2, Q5TCQ9
Test: holdup assay
Parameters: key: below the threshold = too weak to quantify, mostly under pKd 3.1 to 4
Settings: plain residues with an end cap or a label only (N-terminal biotin on a linker: ado-ado)

MAGI3_2, Q5TCQ9, sequence (Q5TCQ9 398-503): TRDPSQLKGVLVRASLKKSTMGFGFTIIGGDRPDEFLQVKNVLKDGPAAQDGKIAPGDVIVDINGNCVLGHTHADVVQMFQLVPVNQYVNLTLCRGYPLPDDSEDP

| pKd | Binder |
| --- | --- |
| 4.38 | B1 |
| 4.05 | B2 |
| below the threshold | B3 |

Biological target: T7, MPDZ_10, O75970
Test: holdup assay
Parameters: key: below the threshold = too weak to quantify, mostly under pKd 3.1 to 4
Settings: plain residues with an end cap or a label only (N-terminal biotin on a linker: ado-ado)

| pKd | Binder |
| --- | --- |
| below the threshold | B1 |
| 3.49 | B2 |
| below the threshold | B3 |

Biological target: T8, MPP2, Q14168
Test: holdup assay
Parameters: key: below the threshold = too weak to quantify, mostly under pKd 3.1 to 4
Settings: plain residues with an end cap or a label only (N-terminal biotin on a linker: ado-ado)

| pKd | Binder |
| --- | --- |
| below the threshold | B1 |
| below the threshold | B2 |
| below the threshold | B3 |

Biological target: T9, NHERF3_4, Q5T2W1
Test: holdup assay
Parameters: key: below the threshold = too weak to quantify, mostly under pKd 3.1 to 4
Settings: plain residues with an end cap or a label only (N-terminal biotin on a linker: ado-ado)

| pKd | Binder |
| --- | --- |
| below the threshold | B1 |
| below the threshold | B2 |
| below the threshold | B3 |

Biological target: T10, PCLO, Q9Y6V0
Test: holdup assay
Parameters: key: below the threshold = too weak to quantify, mostly under pKd 3.1 to 4
Settings: plain residues with an end cap or a label only (N-terminal biotin on a linker: ado-ado)

| pKd | Binder |
| --- | --- |
| below the threshold | B1 |
| below the threshold | B2 |
| below the threshold | B3 |

Biological target: T11, RADIL, Q96JH8
Test: holdup assay
Parameters: key: below the threshold = too weak to quantify, mostly under pKd 3.1 to 4
Settings: plain residues with an end cap or a label only (N-terminal biotin on a linker: ado-ado)

| pKd | Binder |
| --- | --- |
| 4.55 | B1 |
| 5.03 | B2 |
| below the threshold | B3 |

Biological target: TJP1_2, Q07157
Test: holdup assay
Parameters: key: below the threshold = too weak to quantify, mostly under pKd 3.1 to 4
Settings: plain residues with an end cap or a label only (N-terminal biotin on a linker: ado-ado)

TJP1_2, Q07157, sequence (Q07157 181-274): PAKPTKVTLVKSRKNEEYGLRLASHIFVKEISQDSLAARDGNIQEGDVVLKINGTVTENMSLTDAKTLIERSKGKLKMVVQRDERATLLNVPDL

| pKd | Binder |
| --- | --- |
| below the threshold | B1 |
| below the threshold | B2 |
| below the threshold | B3 |

Biological target: TJP2_1, Q9UDY2
Test: holdup assay
Parameters: key: below the threshold = too weak to quantify, mostly under pKd 3.1 to 4
Settings: plain residues with an end cap or a label only (N-terminal biotin on a linker: ado-ado)

TJP2_1, Q9UDY2, sequence (Q9UDY2 24-128): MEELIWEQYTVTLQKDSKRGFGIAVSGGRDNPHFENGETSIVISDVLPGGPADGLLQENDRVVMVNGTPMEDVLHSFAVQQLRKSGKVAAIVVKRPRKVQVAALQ

| pKd | Binder |
| --- | --- |
| 4.4 | B1 |
| below the threshold | B2 |
| below the threshold | B3 |

Biological target: T12, TX1BP3, O14907
Test: holdup assay
Parameters: key: below the threshold = too weak to quantify, mostly under pKd 3.1 to 4
Settings: plain residues with an end cap or a label only (N-terminal biotin on a linker: ado-ado)

| pKd | Binder |
| --- | --- |
| 4.62 | B1 |
| 3.98 | B2 |
| below the threshold | B3 |

Reference: paper PMC9482650, “Quantitative fragmentomics allow affinity mapping of interactomes” (Nature Communications, 2022)
